Assay [1] addresses rFGF2 antigen (recombinant fibroblast growth factor 2) (UniProt P09038). In words: SPR kinetic affinity assay. For orientation: SPR reads the build-up and loss of mass on a sensor chip optically.
The target of assay [2] is T1, rFGF2 antigen (recombinant fibroblast growth factor 2) (UniProt P09038 143-288, limits assumed).
T1 construct: also called FGF2 protein
In words: SPR kinetic affinity assay.

What is called Kd is the equilibrium constant for the complex coming apart. In general, koff refers to the rate constant with which the complex falls apart. By kon is commonly meant a measure of how fast the partners come together.

T1 sequence (P09038 143-288 limits assumed): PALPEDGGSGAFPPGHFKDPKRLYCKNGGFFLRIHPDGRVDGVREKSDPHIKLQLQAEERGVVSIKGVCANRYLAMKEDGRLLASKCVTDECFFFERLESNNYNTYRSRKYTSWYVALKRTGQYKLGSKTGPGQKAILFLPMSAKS
rFGF2 antigen (recombinant fibroblast growth factor 2) (UniProt P09038), sequence (P09038 143-288 limits assumed): as above

B1: human anti-FGF2 antibody 32L98H (antibody, part only; not given: light chain 32L, human IgG1, V domains shown, part only)
VH: QITLKESGPTLVKPTQTLTLTCTFSGFSLSTSGVGVGWIRQPPGEALEWLAVIHWNEANYYSPYLRSRLTITKDTSKNQMVLTVTNMDPVDTATYYCARGANSDSSGRLDAFDIWGQGTMVTVSS
As for B1, in assay [1], the Kd is 8.53 nM, the koff stood at 0.00326 s⁻¹ and the kon is 382000 M⁻¹ s⁻¹.

B2: human anti-FGF2 antibody 62K98H (antibody, human IgG1, V domains shown)
VH: B1 VH
VL: DVVMTQSPLSLPVTLGQPASISCRSSQSLIYSDGNTRLYWFHQRPGQSPRRLIYGVSNRDSGVPDRFSGSGSGTDFTLKISRVEAEDVGVYYCMQSTHWPHTFGQGTKLEIK
notes: Human IgG1 format (AbVec vectors with human gamma1 HC and kappa LC constant regions)
Take B2: in assay [2], the Kd came out at 9.1 nM, the koff stood at 0.00156 s⁻¹ and the kon was 171000 M⁻¹ s⁻¹.

B3: human anti-FGF2 antibody 85L117H (antibody, human IgG1, V domains shown)
VH: QVQLVQSGAELKRPGSSVKVSCRASGDTFKNYAITWVRQAPGQGLEWVGGIDPLVGVPNYTHRFQGRVTITADEPTSTTYMEFRDLTSDDTAVYYCARGVRDQHWSYFDSWGQGTLVTVSS
VL: QSVLTQPPSASGTPGQTVNISCSGATSNIGGGSVNWYQQLPGAAPRLLIHSDNERASGVPDRFSGSKSGTSASLAISGLQSEDEADYFCASWDDSLDGHVVFGGGTKVTVL
notes: Human IgG1 format (AbVec vectors with human gamma1 HC and lambda LC constant regions)
In the case of B3, in assay [2], the Kd turned out to be 17 nM, the koff was 0.000834 s⁻¹ and the kon was found to be 49200 M⁻¹ s⁻¹.

(Values after patent publication EP4707298A2 (INSTITUTO BUTANTAN, dated 2026).)
